Tested on: Xenopus oocytes
Assay: 4-MTB uptake in Xenopus oocytes expressing Arabidopsis GTR and other NRT/PTR proteins (LC-MS)
Format: cell-based
Conditions: pH 5, 1 mM 4-MTB

Molecule	4-MTB uptake activity compared to AtGTR1
AtGTR4: Arabidopsis GTR protein, SEQ ID NO: 8 (protein, listed as Arabidopsis thaliana) MDNEKGTSSSDLTTRQRKPLGWKAMPYIIGNETLERLATFGLMANFMVYMVREYHMDQVQAVTLINTWSALTNFAPIIGAFISDSYTGKFNTIVFGSIAELLGMLVLTFTSLVPNLRPPPCTADQITGQCIPYSYSQLYVLLSGLFLLSVGTGGIRSCSVPFSLDQFDDSTEEGREGSRSFFSWYYTTHTIVQLVSMTLVLYVQNNISWGIGFAIPTVLNFFALLLLFVGTRYYVFVKPEGSVFSGVFKVLVAAYKKRKARFTSGIDYHQPLLETDLQSNKLVLTDQFRFLNKAVIVMNNDEAGNEEWRTCTVRQIEDIKSIISIIPIFASSIIGFLAMNQQQTFTVSQALKMDLQFPGTSYLIPPASITVISLLNIGIWLPFYETVLVRHIENITKQNGGISLLQKVGIGNIFSISTMLISGIVERKRRDLSLNGVKMSVFWLTPQQVLMGFYQVFTIVGLTEFFNKQVPINMRSIGNSLLYLGLSLASYLSSAMVSIVHSVTARGGQSWLTDDIDKSKLDCFYYFIAALSTLNFIFFFWCARRYRYRNYSNEQ	10%
AtGTR5: Arabidopsis GTR protein, SEQ ID NO: 10 (protein, listed as Arabidopsis thaliana) MVLEDRKDGSSLPGRSGSFSKSSPSELDVVDPYKRISSPGSILDAEKVEKKPGGWRAVSFILGNETLERLGSIGLLANFMVYLTKVFHLEQVDAANVINIWSGFTNLTPLVGAYISDTYVGRFKTIAFASFATLLGLITITLTASFPQLHPASCNSQDPLSCGGPNKLQIGVLLLGLCFLSVGSGGIRPCSIPFGVDQFDQRTEEGVKGVASFFNWYYMTFTVVLIITQTVVVYIQDQVSWIIGFSIPTGLMALAVVMFFAGMKRYVYVKPEGSIFSGIAQVIVAARKKRKLKLPAEDDGTVTYYDPAIKSSVLSKLHRSNQFRCLDKAAVVIEGDLTPEGPPADKWRLCSVQEVEEVKCLIRIVPIWSAGIISLAAMTTQGTFTVSQALKMDRNLGPKFEIPAGSLSVISLLTIGIFLPFYDRVFVPFMRRITGHKSGITLLQRIGTGIVFAIFSMIVAGIVERMRRIRSINAGDPTGMTPMSVFWLSPQLILMGLCEAFNIIGQIEFFNSQFPEHMRSIANSLFSLSFAGSSYLSSFLVTVVHKFSGGHDRPDWLNKNLNAGKLDYFYYLIAVLGVVNLVYFWYCARGYRYKVGLPIEDFEEDKSSDDVEMTSKKSMK	10%
